# Data as given in the Human Domainome abundance scans (Beltran et al. 2025).
# ± gives the uncertainty stated by the source.
# Experiment: abundance fitness (aPCA) (normalised: wild type 0, dead -1); higher = more abundant; growth selection in yeast, the domain comes from the species named
# Details: Homo sapiens
row,Substance,abundance fitness
1,"Scaffold attachment factor B2 V55Q, Q14151",-0.173 ± 0.1
2,"Scaffold attachment factor B2 V55R, Q14151",-0.326 ± 0.075
3,"Scaffold attachment factor B2 V55S, Q14151",-0.496 ± 0.11
4,"Scaffold attachment factor B2 V55W, Q14151",-0.811 ± 0.1
5,"Scaffold attachment factor B2 V55Y, Q14151",-0.605 ± 0.18
6,"Scaffold attachment factor B2 V64A, Q14151",-0.227 ± 0.096
7,"Scaffold attachment factor B2 V64C, Q14151",-0.312 ± 0.14
8,"Scaffold attachment factor B2 V64D, Q14151",-0.232 ± 0.18
9,"Scaffold attachment factor B2 V64E, Q14151",-0.109 ± 0.098
10,"Scaffold attachment factor B2 V64F, Q14151",-0.326 ± 0.12
11,"Scaffold attachment factor B2 V64G, Q14151",-0.294 ± 0.091
12,"Scaffold attachment factor B2 V64H, Q14151",-0.173 ± 0.1
13,"Scaffold attachment factor B2 V64I, Q14151",-0.271 ± 0.14
14,"Scaffold attachment factor B2 V64K, Q14151",-0.035 ± 0.14
15,"Scaffold attachment factor B2 V64L, Q14151",0.006 ± 0.098
16,"Scaffold attachment factor B2 V64M, Q14151",-0.013 ± 0.13
17,"Scaffold attachment factor B2 V64N, Q14151",-0.418 ± 0.21
18,"Scaffold attachment factor B2 V64Q, Q14151",-0.141 ± 0.16
19,"Scaffold attachment factor B2 V64R, Q14151",-0.14 ± 0.09
20,"Scaffold attachment factor B2 V64S, Q14151",-0.242 ± 0.084

row,Substance,abundance fitness
1,"Scaffold attachment factor B2 V64T, Q14151",-0.123 ± 0.11
2,"Scaffold attachment factor B2 V64W, Q14151",-0.025 ± 0.086
3,"Scaffold attachment factor B2 V64Y, Q14151",-0.274 ± 0.31
4,"Tyrosine-protein kinase Lck D77E, P06239",-0.02 ± 0.13
5,"Tyrosine-protein kinase Lck E83K, P06239",-0.049 ± 0.12
6,"Tyrosine-protein kinase Lck E92N, P06239",-0.047 ± 0.14
7,"Tyrosine-protein kinase Lck E96D, P06239",0.069 ± 0.16
8,"Tyrosine-protein kinase Lck E108T, P06239",0.034 ± 0.12
9,"Tyrosine-protein kinase Lck F110Y, P06239",0.001 ± 0.19
10,"Tyrosine-protein kinase Lck F113S, P06239",0.094 ± 0.071
11,"Tyrosine-protein kinase Lck F115Y, P06239",0.148 ± 0.12
12,"Tyrosine-protein kinase Lck G78D, P06239",-0.088 ± 0.099
13,"Tyrosine-protein kinase Lck G81S, P06239",-0.096 ± 0.078
14,"Tyrosine-protein kinase Lck H70Y, P06239",-0.029 ± 0.12
15,"Tyrosine-protein kinase Lck H76T, P06239",-0.17 ± 0.1
16,"Tyrosine-protein kinase Lck I67A, P06239",-0.465 ± 0.1
17,"Tyrosine-protein kinase Lck I67C, P06239",-0.193 ± 0.12
18,"Tyrosine-protein kinase Lck I67D, P06239",-0.506 ± 0.21
19,"Tyrosine-protein kinase Lck I67E, P06239",-0.146 ± 0.11
20,"Tyrosine-protein kinase Lck I67F, P06239",-0.102 ± 0.16

row,Substance,abundance fitness
1,"Tyrosine-protein kinase Lck I67G, P06239",-0.552 ± 0.079
2,"Tyrosine-protein kinase Lck I67H, P06239",-0.353 ± 0.13
3,"Tyrosine-protein kinase Lck I67K, P06239",-0.442 ± 0.14
4,"Tyrosine-protein kinase Lck I67N, P06239",-0.206 ± 0.15
5,"Tyrosine-protein kinase Lck I67P, P06239",-0.607 ± 0.15
6,"Tyrosine-protein kinase Lck I67Q, P06239",-0.394 ± 0.14
7,"Tyrosine-protein kinase Lck I67R, P06239",-0.263 ± 0.097
8,"Tyrosine-protein kinase Lck I67S, P06239",-0.378 ± 0.08
9,"Tyrosine-protein kinase Lck I67T, P06239",0.151 ± 0.16
10,"Tyrosine-protein kinase Lck I67W, P06239",-0.078 ± 0.11
11,"Tyrosine-protein kinase Lck I67Y, P06239",0.097 ± 0.25
12,"Tyrosine-protein kinase Lck K99L, P06239",-0.125 ± 0.074
13,"Tyrosine-protein kinase Lck P74A, P06239",-0.414 ± 0.1
14,"Tyrosine-protein kinase Lck Q87R, P06239",-0.01 ± 0.077
15,"Tyrosine-protein kinase Lck Q101H, P06239",-0.328 ± 0.16
16,"Tyrosine-protein kinase Lck R89Q, P06239",0.125 ± 0.29
17,"Tyrosine-protein kinase Lck S71D, P06239",-0.095 ± 0.14
18,"Tyrosine-protein kinase Lck S75R, P06239",-0.064 ± 0.081
